# Measured values from the Human Domainome abundance scans (Beltran et al. 2025).
# ± gives the uncertainty stated by the source.
# B1: Segment polarity protein dishevelled homolog DVL-3, residues 2 to 81; numbered along this chain, Q92997 (parent)
# chain: GETKIIYHLDGQETPYLVKLPLPAERVTLADFKGVLQRPSYKFFFKSMDDDFGVVKEEISDDNAKLPCFNGRVVSWLVSA
# Variants of: B1
# Test: abundance fitness (aPCA) (normalised: wild type 0, dead -1); higher = more abundant; growth selection in yeast, the domain comes from the species named
# Conditions: Homo sapiens
row,Variant,abundance fitness
1,GETKIIYHLDGQETPYLVKLPLPAERVTLADFKAVLQRPSYKFFFKSMDDDFGVVKEEISDDNAKLPCFNGRVVSWLVSA [G34A],0.174 ± 0.053
2,GETKIIYHLDGQETPYLVKLPLPAERVTLADFKNVLQRPSYKFFFKSMDDDFGVVKEEISDDNAKLPCFNGRVVSWLVSA [G34N],0.291 ± 0.092
3,GETKIIYHLDGQETPYLVKLPLPAERVTLADFKCVLQRPSYKFFFKSMDDDFGVVKEEISDDNAKLPCFNGRVVSWLVSA [G34C],-0.213 ± 0.078
4,GETKIIYHLDGQETPYLVKLPLPAERVTLADFKYVLQRPSYKFFFKSMDDDFGVVKEEISDDNAKLPCFNGRVVSWLVSA [G34Y],-0.388 ± 0.14
5,GETKIIYHLDGQETPYLVKLPLPAERVTLADFKDVLQRPSYKFFFKSMDDDFGVVKEEISDDNAKLPCFNGRVVSWLVSA [G34D],0.418 ± 0.08
6,GETKIIYHLDGQETPYLVKLPLPAERVTLADFKWVLQRPSYKFFFKSMDDDFGVVKEEISDDNAKLPCFNGRVVSWLVSA [G34W],-0.649 ± 0.11
7,GETKIIYHLDGQETPYLVKLPLPAERVTLADFKVVLQRPSYKFFFKSMDDDFGVVKEEISDDNAKLPCFNGRVVSWLVSA [G34V],-0.371 ± 0.066
8,GETKIIYHLDGQETPYLVKLPLPAERVTLADFKLVLQRPSYKFFFKSMDDDFGVVKEEISDDNAKLPCFNGRVVSWLVSA [G34L],-0.119 ± 0.058
9,GETKIIYHLDGQETPYLVKLPLPAERVTLADFKIVLQRPSYKFFFKSMDDDFGVVKEEISDDNAKLPCFNGRVVSWLVSA [G34I],-0.519 ± 0.24
10,GETKIIYHLDGQETPYLVKLPLPAERVTLADFKHVLQRPSYKFFFKSMDDDFGVVKEEISDDNAKLPCFNGRVVSWLVSA [G34H],-0.388 ± 0.16
11,GETKIIYHLDGQETPYLVKLPLPAERVTLADFKRVLQRPSYKFFFKSMDDDFGVVKEEISDDNAKLPCFNGRVVSWLVSA [G34R],0.156 ± 0.043
12,GETKIIYHLDGQETPYLVKLPLPAERVTLADFKPVLQRPSYKFFFKSMDDDFGVVKEEISDDNAKLPCFNGRVVSWLVSA [G34P],-1.03 ± 0.21
13,GETKIIYHLDGQETPYLVKLPLPAERVTLADFKQVLQRPSYKFFFKSMDDDFGVVKEEISDDNAKLPCFNGRVVSWLVSA [G34Q],0.166 ± 0.076
14,GETKIIYHLDGQETPYLVKLPLPAERVTLADFKMVLQRPSYKFFFKSMDDDFGVVKEEISDDNAKLPCFNGRVVSWLVSA [G34M],0.042 ± 0.072
15,GETKIIYHLDGQETPYLVKLPLPAERVTLADFKTVLQRPSYKFFFKSMDDDFGVVKEEISDDNAKLPCFNGRVVSWLVSA [G34T],-0.016 ± 0.078
16,GETKIIYHLDGQETPYLVKLPLPAERVTLALFKGVLQRPSYKFFFKSMDDDFGVVKEEISDDNAKLPCFNGRVVSWLVSA [D31L],-0.791 ± 0.11
17,GETKIIYHLDGQETPYLVKLPLPAERVTLAPFKGVLQRPSYKFFFKSMDDDFGVVKEEISDDNAKLPCFNGRVVSWLVSA [D31P],-0.35 ± 0.12
18,GETKIIYHLDGQETPYLVKLPLPAERVTLAYFKGVLQRPSYKFFFKSMDDDFGVVKEEISDDNAKLPCFNGRVVSWLVSA [D31Y],-0.714 ± 0.2
19,GETKIIYHLDGQETPYLVKLPLPAERVTLAWFKGVLQRPSYKFFFKSMDDDFGVVKEEISDDNAKLPCFNGRVVSWLVSA [D31W],-0.618 ± 0.14
20,GETKIIYHLDGQETPYLVKLPLPAERVTLAMFKGVLQRPSYKFFFKSMDDDFGVVKEEISDDNAKLPCFNGRVVSWLVSA [D31M],-0.047 ± 0.091
21,GETKIIYHLDGQETPYLVKLPLPAERVTLANFKGVLQRPSYKFFFKSMDDDFGVVKEEISDDNAKLPCFNGRVVSWLVSA [D31N],-0.665 ± 0.3
22,GETKIIYHLDGQETPYLVKLPLPAERVTLARFKGVLQRPSYKFFFKSMDDDFGVVKEEISDDNAKLPCFNGRVVSWLVSA [D31R],-0.711 ± 0.093
23,GETKIIYHLDGQETPYLVKLPLPAERVTLAIFKGVLQRPSYKFFFKSMDDDFGVVKEEISDDNAKLPCFNGRVVSWLVSA [D31I],-0.173 ± 0.13

row,Variant,abundance fitness
1,GETKIIYHLDGQETPYLVKLPLPAERVTLAVFKGVLQRPSYKFFFKSMDDDFGVVKEEISDDNAKLPCFNGRVVSWLVSA [D31V],-0.448 ± 0.086
2,GETKIIYHLDGQETPYLVKLPLPAERVTLAQFKGVLQRPSYKFFFKSMDDDFGVVKEEISDDNAKLPCFNGRVVSWLVSA [D31Q],-0.634 ± 0.17
3,GETKIIYHLDGQETPYLVKLPLPAERVTLASFKGVLQRPSYKFFFKSMDDDFGVVKEEISDDNAKLPCFNGRVVSWLVSA [D31S],-0.577 ± 0.11
4,GETKIIYHLDGQETPYLVKLPLPAERVTLATFKGVLQRPSYKFFFKSMDDDFGVVKEEISDDNAKLPCFNGRVVSWLVSA [D31T],-0.217 ± 0.087
5,GETKIIYHLDGQETPYLVKLPLPAERVTLADVKGVLQRPSYKFFFKSMDDDFGVVKEEISDDNAKLPCFNGRVVSWLVSA [F32V],-0.819 ± 0.1
6,GETKIIYHLDGQETPYLVKLPLPAERVTLADMKGVLQRPSYKFFFKSMDDDFGVVKEEISDDNAKLPCFNGRVVSWLVSA [F32M],-0.624 ± 0.14
7,GETKIIYHLDGQETPYLVKLPLPAERVTLADLKGVLQRPSYKFFFKSMDDDFGVVKEEISDDNAKLPCFNGRVVSWLVSA [F32L],-0.337 ± 0.07
8,GETKIIYHLDGQETPYLVKLPLPAERVTLADNKGVLQRPSYKFFFKSMDDDFGVVKEEISDDNAKLPCFNGRVVSWLVSA [F32N],-1.28 ± 0.45
9,GETKIIYHLDGQETPYLVKLPLPAERVTLADEKGVLQRPSYKFFFKSMDDDFGVVKEEISDDNAKLPCFNGRVVSWLVSA [F32E],-0.649 ± 0.11
10,GETKIIYHLDGQETPYLVKLPLPAERVTLADYKGVLQRPSYKFFFKSMDDDFGVVKEEISDDNAKLPCFNGRVVSWLVSA [F32Y],-0.544 ± 0.18
11,GETKIIYHLDGQETPYLVKLPLPAERVTLADTKGVLQRPSYKFFFKSMDDDFGVVKEEISDDNAKLPCFNGRVVSWLVSA [F32T],-0.598 ± 0.13
12,GETKIIYHLDGQETPYLVKLPLPAERVTLADAKGVLQRPSYKFFFKSMDDDFGVVKEEISDDNAKLPCFNGRVVSWLVSA [F32A],-0.622 ± 0.1
13,GETKIIYHLDGQETPYLVKLPLPAERVTLADIKGVLQRPSYKFFFKSMDDDFGVVKEEISDDNAKLPCFNGRVVSWLVSA [F32I],-0.469 ± 0.16
14,GETKIIYHLDGQETPYLVKLPLPAERVTLADKKGVLQRPSYKFFFKSMDDDFGVVKEEISDDNAKLPCFNGRVVSWLVSA [F32K],-1.01 ± 0.21
15,GETKIIYHLDGQETPYLVKLPLPAERVTLADHKGVLQRPSYKFFFKSMDDDFGVVKEEISDDNAKLPCFNGRVVSWLVSA [F32H],-0.447 ± 0.23
16,GETKIIYHLDGQETPYLVKLPLPAERVTLADWKGVLQRPSYKFFFKSMDDDFGVVKEEISDDNAKLPCFNGRVVSWLVSA [F32W],-0.61 ± 0.1
17,GETKIIYHLDGQETPYLVKLPLPAERVTLADQKGVLQRPSYKFFFKSMDDDFGVVKEEISDDNAKLPCFNGRVVSWLVSA [F32Q],-0.855 ± 0.19
18,GETKIIYHLDGQETPYLVKLPLPAERVTLADPKGVLQRPSYKFFFKSMDDDFGVVKEEISDDNAKLPCFNGRVVSWLVSA [F32P],-0.686 ± 0.18
19,GETKIIYHLDGQETPYLVKLPLPAERVTLADDKGVLQRPSYKFFFKSMDDDFGVVKEEISDDNAKLPCFNGRVVSWLVSA [F32D],-0.688 ± 0.23
20,GETKIIYHLDGQETPYLVKLPLPAERVTLADGKGVLQRPSYKFFFKSMDDDFGVVKEEISDDNAKLPCFNGRVVSWLVSA [F32G],-0.916 ± 0.1
21,GETKIIYHLDGQETPYLVKLPLPAERVTLADRKGVLQRPSYKFFFKSMDDDFGVVKEEISDDNAKLPCFNGRVVSWLVSA [F32R],-0.543 ± 0.073
22,GETKIIYHLDGQETPYLVKLPLPAERVTLADFPGVLQRPSYKFFFKSMDDDFGVVKEEISDDNAKLPCFNGRVVSWLVSA [K33P],-1.13 ± 0.24
23,GETKIIYHLDGQETPYLVKLPLPAERVTLADFHGVLQRPSYKFFFKSMDDDFGVVKEEISDDNAKLPCFNGRVVSWLVSA [K33H],-0.631 ± 0.24

row,Variant,abundance fitness
1,GETKIIYHLDGQETPYLVKLPLPAERVTLADFTGVLQRPSYKFFFKSMDDDFGVVKEEISDDNAKLPCFNGRVVSWLVSA [K33T],-0.618 ± 0.13
2,GETKIIYHLDGQETPYLVKLPLPAERVTLADFEGVLQRPSYKFFFKSMDDDFGVVKEEISDDNAKLPCFNGRVVSWLVSA [K33E],-0.672 ± 0.12
3,GETKIIYHLDGQETPYLVKLPLPAERVTLADFAGVLQRPSYKFFFKSMDDDFGVVKEEISDDNAKLPCFNGRVVSWLVSA [K33A],-1.08 ± 0.18
4,GETKIIYHLDGQETPYLVKLPLPAERVTLADFQGVLQRPSYKFFFKSMDDDFGVVKEEISDDNAKLPCFNGRVVSWLVSA [K33Q],-0.94 ± 0.21
5,GETKIIYHLDGQETPYLVKLPLPAERVTLADFDGVLQRPSYKFFFKSMDDDFGVVKEEISDDNAKLPCFNGRVVSWLVSA [K33D],-1.06 ± 0.29
6,GETKIIYHLDGQETPYLVKLPLPAERVTLADFLGVLQRPSYKFFFKSMDDDFGVVKEEISDDNAKLPCFNGRVVSWLVSA [K33L],-0.936 ± 0.13
7,GETKIIYHLDGQETPYLVKLPLPAERVTLADFFGVLQRPSYKFFFKSMDDDFGVVKEEISDDNAKLPCFNGRVVSWLVSA [K33F],-0.661 ± 0.2
8,GETKIIYHLDGQETPYLVKLPLPAERVTLADFVGVLQRPSYKFFFKSMDDDFGVVKEEISDDNAKLPCFNGRVVSWLVSA [K33V],-0.762 ± 0.11
9,GETKIIYHLDGQETPYLVKLPLPAERVTLADFCGVLQRPSYKFFFKSMDDDFGVVKEEISDDNAKLPCFNGRVVSWLVSA [K33C],-0.589 ± 0.16
10,GETKIIYHLDGQETPYLVKLPLPAERVTLADFNGVLQRPSYKFFFKSMDDDFGVVKEEISDDNAKLPCFNGRVVSWLVSA [K33N],-0.087 ± 0.14
11,GETKIIYHLDGQETPYLVKLPLPAERVTLADFRGVLQRPSYKFFFKSMDDDFGVVKEEISDDNAKLPCFNGRVVSWLVSA [K33R],-0.693 ± 0.083
12,GETKIIYHLDGQETPYLVKLPLPAERVTLADFGGVLQRPSYKFFFKSMDDDFGVVKEEISDDNAKLPCFNGRVVSWLVSA [K33G],-0.704 ± 0.078
13,GETKIIYHLDGQETPYLVKLPLPAERVTLADFIGVLQRPSYKFFFKSMDDDFGVVKEEISDDNAKLPCFNGRVVSWLVSA [K33I],-0.939 ± 0.26
14,GETKIIYHLDGQETPYLVKLPLPAERVTLADFWGVLQRPSYKFFFKSMDDDFGVVKEEISDDNAKLPCFNGRVVSWLVSA [K33W],-0.52 ± 0.091
15,GETKIIYHLDGQETPYLVKLPLPAERVTLADFSGVLQRPSYKFFFKSMDDDFGVVKEEISDDNAKLPCFNGRVVSWLVSA [K33S],-0.527 ± 0.091
16,GETKIIYHLDGQETPYLVKLPLPAERVTLADFKGILQRPSYKFFFKSMDDDFGVVKEEISDDNAKLPCFNGRVVSWLVSA [V35I],-0.141 ± 0.1
17,GETKIIYHLDGQETPYLVKLPLPAERVTLADFKGALQRPSYKFFFKSMDDDFGVVKEEISDDNAKLPCFNGRVVSWLVSA [V35A],0.173 ± 0.052
18,GETKIIYHLDGQETPYLVKLPLPAERVTLADFKGCLQRPSYKFFFKSMDDDFGVVKEEISDDNAKLPCFNGRVVSWLVSA [V35C],-0.074 ± 0.099
19,GETKIIYHLDGQETPYLVKLPLPAERVTLADFKGHLQRPSYKFFFKSMDDDFGVVKEEISDDNAKLPCFNGRVVSWLVSA [V35H],-0.301 ± 0.15
20,GETKIIYHLDGQETPYLVKLPLPAERVTLADFKGELQRPSYKFFFKSMDDDFGVVKEEISDDNAKLPCFNGRVVSWLVSA [V35E],-0.468 ± 0.085
21,GETKIIYHLDGQETPYLVKLPLPAERVTLADFKGFLQRPSYKFFFKSMDDDFGVVKEEISDDNAKLPCFNGRVVSWLVSA [V35F],-0.031 ± 0.12
22,GETKIIYHLDGQETPYLVKLPLPAERVTLADFKGDLQRPSYKFFFKSMDDDFGVVKEEISDDNAKLPCFNGRVVSWLVSA [V35D],-0.892 ± 0.21
23,GETKIIYHLDGQETPYLVKLPLPAERVTLADFKGGLQRPSYKFFFKSMDDDFGVVKEEISDDNAKLPCFNGRVVSWLVSA [V35G],-0.842 ± 0.085
